Source: patent US20090324593A1 (MacroGenics, published 2009)
Changes are numbered by the printed parent chain. In names and notes the source's numbering stands.

T1: WNV E-protein domain III (dIII) (West Nile Virus, UniProt Q9Q6P4 580-705)
T1 construct: domain: Domain III; also called the antigen; the receptor
T1 sequence (looked up): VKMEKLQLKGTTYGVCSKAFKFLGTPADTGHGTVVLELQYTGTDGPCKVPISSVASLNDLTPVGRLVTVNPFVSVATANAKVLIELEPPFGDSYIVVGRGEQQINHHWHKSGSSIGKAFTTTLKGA

B1: Humanized E16 huE16-3.1 (huE16HC T71A / huE16LC) (antibody, V domains shown)
VH: QVQLVQSGAEVKKPGASVKVSCKASGYTFTDYWIEWVRQAPGQGLEWMGDILCGTGRTRYNEKLKARVTMTADTSTSTAYMELRSLRSDDTAVYYCARSASYGDYADYWGQGTTVTVSS
VL: DIVMTQSPDSLAVSLGERATINCKASQDVSTAVAWYQQKPGQPPKLLIYWASTRHTGVPDRFSGSGSGTDFTLTISSLQAEDVAVYYCQQHYTTPLTFGQGTKLEIK
notes: also called huE16-3 (T71A)/huE16LC; huE16HC-2 T71A/huE16LC
B2: Humanized E16 huE16-2.2 (huE16HC-2 V67A, M69F, T71A / huE16LC-2 Y49S) (antibody, V domains shown)
VH: B1 VH with V68A, M70F
VL: B1 VL with Y49S
B3: Humanized E16 huE16-3.2 (huE16HC T71A / huE16LC-2 Y49S) (antibody, V domains shown)
VH: B1 VH
VL: B1 VL with Y49S
notes: also called hE16-3.2; huE16-2 (T71A)/huE16LC-2 (Y49S)
B4: Humanized E16 huE16-2.1 (huE16HC-2 V67A, M69F, T71A / huE16LC) (antibody, V domains shown)
VH: B1 VH with V68A, M70F
VL: B1 VL

The binders below were run against T1, WNV E-protein domain III (dIII) (assay: antigen capture ELISA (sheet title: E9 captured E protein DIII), 2.5 ng/well domain III captured by mouse antibody E9, HRP anti-human IgG F(ab')2 detection).
Experimental: Protocol for antibody-capture ELISA assay: 2.5 ng/well of dIII was captured on 96-well Maxisorp plates by mouse anti-WNV E-protein antibody E9 at room temperature for 2 hours. A serial of two-fold dilution of conditioned medium of chE16, huE16, huE16HC/ch2B6LC or chE16HC/huE16LC starting from 5 ng/well was added to each well. The plate was incubated at room temperature for 1 hour, then binding was detected by HRP conjugated F(ab′)₂ goat anti human IgG F(ab)′₂ specific secondary antibody (Jackson ImmunoResearch, Inc.) at 1:10,000 dilution. After incubation with the secondary antibody for approximately 45 minutes, the plate was developed using a TMB substrate. After 5 minutes incubation, the reaction was stopped by 1% H₂SO₄. The OD₄₅₀ nm was read by SOFTmax program. Between each step, the plates were washed 3 times with PBS/0.1% Tween20. Plates were blocked by 0.5% BSA in PBS/0.1% Tween 20 for 30 mins at room temperature before adding conditioned medium.
After three days in culture the amount of human IgG expressed was quantitated by ELISA. Binding to WNV E-protein domain III (dIII) was determined by ELISA and antibody-capture ELISA assays as described above.

Row | Binder | EC50 (read off the curve)
1 | B1 | ~0.01 µg/mL
2 | B2 | ~0.01 µg/mL
3 | B3 | ~0.01 µg/mL
4 | B4 | ~0.01 µg/mL
